Results taken from article PMC8056390.

Tests used:
[1] = target: AmtB with the C312T mutation (trimeric ammonia channel from Escherichia coli) (Escherichia coli) (UniProt P69681); assay: native MS
GlnK with Y51F mutation = GlnK with Y51F mutation (UniProt P0AC55); assay: native MS

stoichiometry N [1] | stoichiometry N (GlnK with Y51F mutation) | Substance
3 |  | AmtB with the C312T mutation (trimeric ammonia channel from Escherichia coli) (from UniProt P69681 23-428) (natural protein)
 | 3 | GlnK with Y51F mutation (from UniProt P0AC55 1-112) (natural protein)
